Test results published in the supplement of paper PMC9170038.

Key:
MS2 coat protein [1] = assay: apparent KD of MS2 coat protein, switch ON state; designed switch direction (-1 OFF switch, 1 ON switch): 1; higher = weaker reporter binding; settings: FMN input: 0 or 200 uM; Eterna round: R93 (includes R88 designs)
Method in brief: (§1)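 Values are apparent KD, taken as the median for each design of fits to normalised binding curves from individual clusters. The designed RNA switches were transcribed on-chip from Illumina sequencing clusters and exposed to SNAP-549-labelled MS2 coat protein at twofold increasing amounts from 0.7 or 1.5 nM to 3 µM. Titration used 100 mM Tris-HCl pH 7.5, 80 mM KCl and 4 mM MgCl2, without or with constant ligand.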

MS2 coat protein [2] = assay: apparent KD of MS2 coat protein, switch OFF state (with FMN for OFF switches, without FMN for ON switches); designed switch direction (-1 OFF switch, 1 ON switch): 1; higher = weaker reporter binding; settings: FMN input: 0 or 200 uM; Eterna round: R93 (includes R88 designs)
Method in brief: as §1

Sequence | apparent KD of MS2 coat protein (MS2 coat protein [1]) | apparent KD of MS2 coat protein (MS2 coat protein [2])
AACAAACAUGAGGAUCACCCAUGUCAAACAUACCAAGGAUAUGGGAGACGAGACUCGUCACCAGAAGGUGGAAAUU [Maatce] | 106 nM | 123 nM
AAAAAACAUGAGGAUCACCCAUGUCUUUUGACAUGAGGAUAUGUACAGACUUCGGUCUGUACAGAAGGCAUGUAAA [SS1 - 1028] | 31.1 nM | 397 nM
AAACCACAUGAGGAUCACCCAUGUAGAAAUAUGGGAGGAUAUACAAACACGAAAGUGAAAGUAGAAGGCCUAAAAG [77%, Mat - Mod of Eli, 7] | 17.7 nM | 118 nM
AAAAAACAUGAGGAUCACCCAUGUCCUCGGACGUGAGGAUAUGUACAGACUUCGGUCUGUACAGAAGGCACGUAAA [SS1 - 1042] | 492 nM | 402 nM
CUACAACAUGAGGAUCACCCAUGUCGUAGAAAUCAAGGAUAUGGGUCGGUAACAUGCGUACCAGAAGGUGAGGAAA [Rebicequ] | 29.3 nM | 30.4 nM
AAAAUAAAAUAAAAGGAUAUAAAGAUAUAUACAUGAGGAUCACCCAUGUAUAUAUCAAUAAAAUAAAAGAAGGAAUAAAAAUAAA [SS2 510: MS2 10] | 14.8 nM | 18 nM
AAAUAACAUGAGGAUCACCCAUGUCAAAUAAAUCGAGGAUAUGGGCCCGGGUUCCGGAAGCCAGAAGGCGAAAAGA [Diareslera] | 24.9 nM | 55.1 nM
CGUGAACAUGAGGAUCACCCAUGUAGCGGGAGACAAGGAUAUGGGAGGCGAAAUCGCGGAUCAGAAGGUGUAAGCG [Zace] | 16.4 nM | 16.5 nM
AUAUAUAUAAGGUAGGAUAUCCUAAAGUAAACAUGAGGAUCACCCAUGUAAAGAAAGAAACUCAUGGAGAAGGACCAUAUAUAUA | 15.5 nM | 20.2 nM
AAAAGACAUGAGGAUCACCCAUGUGAAAACGUAGGAGGAUAUGUCGUGAAAAAAGACUUGACAGAAGGCCUGUGUC [SS1 - 34] | 28.1 nM | 63.5 nM
AAAAAACAUGAGGAUCACCCAUGUAUGAUAACAUCAGGAUAUUGGCUUGACUAUGUCUUACAAGAAGGGAUGAAAA [Same State 1.3e (Same State 1 - Omei 2 )] | 28.3 nM | 48.6 nM
GCAAAACAUGAGGAUCACCCAUGUGAAAAGAAUGUAGGAUAUGGGCUCAUAAAUAGCAGCCCAGAAGGGCGAAGAA [Onmace] | 29.6 nM | 26.2 nM
AAUAAUUAUAUCGAGGAUAUCGGUAAUAAGACAUGAGGAUCACCCAUGUAAUAAGGUUAAAUAAACGAGAAGGCGAAGGGUGAAA [JR_SS002_Sub006] | 80.9 nM | 49.2 nM
GGCUGCGAUGUGAAGGAUAUCCGCGACUGGACAUGAGGAUCACCCAUGUAUGCUUGGAACAUGCCGGAGAAGGUCACGAAUGAUU [JR_SS002_Sub1216] | 18.7 nM | 30.2 nM
AAGCAACAUGAGGAUCACCCAUGUAGCAGGGUCAGAGGAUAUUUGAUCUUGGCAAGGGUUAAAGAAGGUUGAUAAA [Rianqu] | 264 nM | 140 nM
GGUACGGCUAGUCAGGAUAUCAGGCGUAAGACAUGAGGAUCACCCAUGUCCUAAGAACAGGUAACUGAGAAGGGACAGGGCGUCC [JR_SS002_Sub414] | 28.8 nM | 63.1 nM
AAAAUACAUGAGGAUCACCCAUGUGAAAAUAUGGGAGGAUAUACAAACACGAAAGUGAAAGUAGAAGGCCUAAAAA [SS! MT 15] | 51.6 nM | 231 nM
AAUCCAAAUAGUUAGGAUAUGGGAAUAAAAACAUGAGGAUCACCCAUGUAAUUGAAACAAGUUAACCAGAAGGGACAGGGUGAAA [JR_SS002_Sub210] | 67.5 nM | 16.6 nM
GCGGUGUAGGUACAGGAUAUGUUGCUCGUAACAUGAGGAUCACCCAUGUACCUAUGAGAUUAAAUGCAGAAGGGUGCACACCACG [Zaalaes] | 21.5 nM | 2.41 nM
AAUAAACAUGAGGAUCACCCAUGUAGAAACAUGGGAGGAUAUACAAAGACGAAAGUCAAAGUAGAAGGCCUAAAAA [Mat - Same State 1 - Mod - D168] | 150 nM | 329 nM
ACAAACAAAAAAGAGGAUAUCCAAAACAAAACAUGAGGAUCACCCAUGUAAAAGAAAAGAAAAUGGGAGAAGGCUUACAACAAAC [SS2 M 22] | 19.4 nM | 28.2 nM
AAAGACAUAGUUCAGGAUAUGGUAAUAGUCACAUGAGGAUCACCCAUGUUCUUUUAUAAGAACGAUCAGAAGGGAGGUAAAAAAA [SameState2 Malc#14] | 151 nM | 282 nM

Sequence | apparent KD of MS2 coat protein (MS2 coat protein [1]) | apparent KD of MS2 coat protein (MS2 coat protein [2])
AAGAAACAUGAGGAUCACCCAUGUAGAAAUAUGGGAGGAUAUACGAAGACGAAAGUCAAAGUAGAAGGCCUAAGAA [Mat - Same State 1 - Eli mod - D105] | 36.3 nM | 82 nM
GAAAAACAUGAGGAUCACCCAUGUAGAAAUAUGGGAGGAUAUACGAAGUCGAAAGUCAAAGUAGAAGGCCUAAAAG [Garnet 28] | 31.3 nM | 108 nM
GUGAGACAUGAGGAUCACCCAUGUACGCGUCAGCAAGGAUAUGGGAAUAAAAGACAGAGACCAGAAGGUGCUGUUG [Arzaerri] | 22.9 nM | 67.5 nM
AAAAAACAUGAGGAUCACCCAUGUCAAAAGACGUGAGGAUAUGUACAGACUUCGGUCUGUACAGAAGGCAUGAAAA [SS1 - 1056] | 32 nM | 136 nM
AGAAAUAAAUGAGAGGAUAUCCAAAAGAAAACAUGAGGAUCACCCAUGUAAAAGAAAAUAAAAUGGGAGAAGGCUCGAAAUAAAG [80%, More Helter Skelter 2] | 22.4 nM | 68.5 nM
AACAAUCUAUCUGAGGAUAUGUGUCAAAAGACAUGAGGAUCACCCAUGUAAAAACAUGAAAAGACACAGAAGGCAGAUAGAUUGA [SS2: 1153] | 21.4 nM | 44.2 nM
AAGAUACAUGAGGAUCACCCAUGUUUUGGUGGGUCAGGAUAUAAAAAGAAUGAGAGAAAGUUAGAAGGGACAAAGA [JR_SS001_Sub005] | 201 nM | 309 nM
AAAAAAUAAAAAAAGGAUAUAAUGCUACAGACAUGAGGAUCACCCAUGUAGGUAGCAUUAAUAAAAAAGAAGGAAAAAUAAAAAA [SS2: MS2 32] | 9.09 nM | 15.3 nM
GGAAGACAUGAGGAUCACCCAUGUGGGAAUAUGGGAGGAUAUACAAAGACGAGAGUCAGAGUAGAAGGCCUAGGCC [salish99-ss1-103(!)] | 54.3 nM | 126 nM
CAGCGCUGUCGAGAGGAUAUGCGGUGAUGGACAUGAGGAUCACCCAUGUAAGCGAUAGCAUUACGGCAGAAGGCUCUGCAGCUGC [Riaranzaes] | 18.7 nM | 69.6 nM
AAACCACAUGAGGAUCACCCAUGUAAGAUAUACAUAGGAUAUGCGAAAAGAAACAAAGAAGCAGAAGGGUGGAAAA [75%, Ex sub1, 15] | 100 nM | 54.9 nM
AACAAUCUAUCUGAGGAUAUCAUGUCAAAGACAUGAGGAUCACCCAUGUGCAGGAAAACUGCAUAUGAGAAGGCAGAUAGAUUGA [SS2 :P - 599] | 217 nM | 130 nM
AAGAGAAGAACUGAGGAUAUCAGGGAUGGUACAUGAGGAUCACCCAUGUUGGCAAGCGAAGAAACUGAGAAGGCAGAGAAGAAGAA [JR_SameState2_Sub6] | 29.4 nM | 34.3 nM
AUAGAACAUGAGGAUCACCCAUGUAAAAAAGCAUGAGGAUAUAUAAGUAAAUAAAAUAAGAUAGAAGGCAUGAUAA [JR_SS001_Sub1701] | 52 nM | 91.4 nM
GGGAGGAAGAGAGAGGAUAUCCAAAGGAAAACAUGAGGAUCACCCAUGUAAAAGGUAGGAAAUUGGGAGAAGGCUCAAGAGACGG [salish99-ss2-053] | 26.7 nM | 34.2 nM
AACCGCGCUAUACAGGAUAUCACAAUAUCGACAUGAGGAUCACCCAUGUGACUGGCACCAGUCGGUGAGAAGGGUGAAGUGCGGC [Tilemage] | 149 nM | 238 nM
AAGAGACAUGAGGAUCACCCAUGUAGGAUUAUGGGAGGAUAUACAAAGACGAGAGUCAGAGUAGAAGGCCUAGGAU [salish99-ss1-130(!)] | 21.5 nM | 59.9 nM
AGGAGACAUGAGGAUCACCCAUGUGAGAAGAGGCGAGGAUAUCGAAAGAAAGAAGAGAAACGAGAAGGCGCGAGGU [salish99-SS1-023] | 23.6 nM | 36.7 nM
AAAUAAAUGACUGAGGAUAUGUCGAAGAAAACAUGAGGAUCACCCAUGUGAUAAUAAAAAGGGUGAUAGAAGGUAGUCAACAAAC [Mod 10 of Pariah 4 by Hyphema in Round 1] | 323 nM | 262 nM
UCGUCCUCGUGCUAGGAUAUCCAUCGUAAAACAUGAGGAUCACCCAUGUAGAAAUGCGCCGACGAGGAGAAGGAGCGAUGUGGAU [Lazabima] | 14.5 nM | 18.5 nM
AGGAAACAUGAGGAUCACCCAUGUAAAAAUAUGGGAGGAUAUACGAAGACGAAAGUAAAAGUAGAAGGCCUAAAAG [Garnet 15] | 31.8 nM | 108 nM
GAAAAACAUGAGGAUCACCCAUGUGGAAAUAUGGAAGGAUAUACAAAGACGGAAGUCAAAGUAGAAGGUCUAAAAG [Mat - Same State 1 - Eli mod - D19] | 23.6 nM | 29.4 nM
